From doi:10.1101/2020.10.21.349639 (bioRxiv, 2020)

Molecular target: T1, NorC (wild type) (Staphylococcus aureus subsp. aureus COL …)
T1 chain: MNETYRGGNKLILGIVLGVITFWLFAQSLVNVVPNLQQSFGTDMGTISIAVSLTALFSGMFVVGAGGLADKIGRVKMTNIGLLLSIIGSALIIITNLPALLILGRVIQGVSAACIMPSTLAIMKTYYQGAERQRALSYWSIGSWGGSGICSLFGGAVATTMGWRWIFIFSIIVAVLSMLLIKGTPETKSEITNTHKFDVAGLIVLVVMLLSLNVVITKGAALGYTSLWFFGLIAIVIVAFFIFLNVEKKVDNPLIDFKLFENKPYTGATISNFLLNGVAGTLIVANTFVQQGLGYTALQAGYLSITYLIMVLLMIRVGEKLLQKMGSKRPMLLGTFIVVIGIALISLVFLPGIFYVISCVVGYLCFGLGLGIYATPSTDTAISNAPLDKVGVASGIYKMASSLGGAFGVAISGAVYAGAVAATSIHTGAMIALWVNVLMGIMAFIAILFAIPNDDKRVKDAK
Assay: ITC

B1: single-domain Indian camelid antibody (ICab), Zn2+-bound (VHH)
VHH: QVQLEESGGGSVQAGGSLRLSCAASGYMYSTYSTYCMGWFRQAPGKEREGVAFIKRGDHSTYYTDSVKGRFTISQDSAKNTVSLQMNNLKPEDTAIYYCAADFAHSFLLSVHSGAGQYSYWGQGTQVTVSS
Kd: 0.038 ± 0.005 µM
